Data published in patent US20120178697A9.

Molecular target: PDZ domain (residues 247 through 341) of mouse Dvl-1 (mouse) (UniProt P51141)
Assay: method not stated; called 'experimental data', at 25° C

Dapper peptide
Kd: 10 µM
